Results as given in publication PMC11297037 (Nature Communications, 2024).

Target: the molecule itself
Test: cryo-EM structure

B1: human neutral amino acid transporter ASCT2 (natural protein)
chain: MVADPPRDSKGLAAAEPTANGGLALASIEDQGAAAGGYCGSRDQVRRCLRANLLVLLTVVAVVAGVALGLGVSGAGGALALGPERLSAFVFPGELLLRLLRMIILPLVVCSLIGGAASLDPGALGRLGAWALLFFLVTTLLASALGVGLALALQPGAASAAINASVGAAGSAENAPSKEVLDSFLDLARNIFPSNLVSAAFRSYSTTYEERNITGTRVKVPVGQEVEGMNILGLVVFAIVFGVALRKLGPEGELLIRFFNSFNEATMVLVSWIMWYAPVGIMFLVAGKIVEMEDVGLLFARLGKYILCCLLGHAIHGLLVLPLIYFLFTRKNPYRFLWGIVTPLATAFGTSSSSATLPLMMKCVEENNGVAKHISRFILPIGATVNMDGAALFQCVAAVFIAQLSQQSLDFVKIITILVTATASSVGAAGIPAGGVLTLAIILEAVNLPVDHISLILAVDWLVDRSCTVLNVEGDALGAGLLQNYVDRTESRSTEPELIQVKSELPLDPLPVPTEEGNPLLKHYRGPAGDATVASEKESVM
  stoichiometry N: 3
